Measured values as given in patent US20040175375A1 (SEOUL NATIONAL UNIVERSITY INDUSTRY FOUNDATION, published 2004).
Values belong to the binder of their own block, whether it stands above or below them.

Assays:
[1] = molecular target: T1, HA-FBP (human, UniProt Q96AE4 1-644); assay: co-immunoprecipitation with anti-myc from 293 cells, western blot
T1 construct: also called HA-tagged FBP; FBP expression plasmid product; not shown: HA tag from HA-tagged pcDNA3 (Invitrogen)
T1 sequence (looked up): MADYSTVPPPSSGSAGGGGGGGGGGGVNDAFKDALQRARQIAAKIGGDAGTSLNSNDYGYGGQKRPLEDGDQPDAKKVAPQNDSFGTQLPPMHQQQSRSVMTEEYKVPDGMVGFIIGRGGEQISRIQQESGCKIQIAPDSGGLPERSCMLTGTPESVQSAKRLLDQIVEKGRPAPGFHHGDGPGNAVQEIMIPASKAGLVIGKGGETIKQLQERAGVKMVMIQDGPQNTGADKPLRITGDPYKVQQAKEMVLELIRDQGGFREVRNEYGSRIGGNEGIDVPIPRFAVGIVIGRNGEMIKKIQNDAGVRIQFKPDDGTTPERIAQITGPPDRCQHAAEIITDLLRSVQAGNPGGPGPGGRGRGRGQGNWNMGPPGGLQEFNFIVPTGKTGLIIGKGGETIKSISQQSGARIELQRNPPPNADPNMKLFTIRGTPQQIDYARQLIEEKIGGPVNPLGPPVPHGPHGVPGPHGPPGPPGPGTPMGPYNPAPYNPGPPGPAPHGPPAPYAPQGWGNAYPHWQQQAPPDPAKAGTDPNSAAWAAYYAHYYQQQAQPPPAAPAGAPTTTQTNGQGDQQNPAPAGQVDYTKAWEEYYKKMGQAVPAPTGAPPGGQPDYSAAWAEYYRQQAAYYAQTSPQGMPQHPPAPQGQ
Procedure: The transfected cells were lysed with the RIPA buffer for 16 hours after the transfection. […] After a protein A-agarose bead had been added to the above reactant, the mixture was incubated further for 1 hour at 4° C. The bead was washed with lysis buffer four times. The precipitated proteins were analyzed by SDS-PAGE and then transferred onto nitrocellulose membranes.

[2] = molecular target: T2, B42-(p38/JTV-1) (human, UniProt Q13155 1-312); assay: yeast two-hybrid (LexA system), blue colony on X-gal
T2 construct: Yeast two-hybrid prey; also called pB42-(p38/JTV-1); not shown: B42 protein from pB42 vector (Invitrogen)
T2 sequence: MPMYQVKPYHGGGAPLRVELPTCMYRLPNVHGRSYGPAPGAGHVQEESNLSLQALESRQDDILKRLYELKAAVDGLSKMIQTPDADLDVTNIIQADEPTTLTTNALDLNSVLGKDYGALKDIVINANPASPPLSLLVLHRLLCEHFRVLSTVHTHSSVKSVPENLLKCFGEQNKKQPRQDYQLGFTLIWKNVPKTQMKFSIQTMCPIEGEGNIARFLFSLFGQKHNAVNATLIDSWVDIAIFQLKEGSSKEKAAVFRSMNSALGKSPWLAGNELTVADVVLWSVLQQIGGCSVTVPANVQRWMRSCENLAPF
Description: (§1) Using the recombinant plasmids constructed in the above, Saccaromyces cerevisiae EGY48 (Clontech laboratories Inc. Estojak et al. (1995)) having a lacZ plasmid (p8op-LacZ) as a probe gene was transformed according to the known methods (Golemis, E. A., et al., In Current Protocols in Molecular Biology, 1994).

[3] = molecular target: T3, B42-WRS (tryptophanyl-tRNA synthetase) (UniProt P23381 1-471); assay: as above
T3 construct: Yeast two-hybrid prey; also called tryptophanyl-WRS; pB42-WRS; not shown: B42 protein from pB42 vector (Invitrogen)
T3 sequence (looked up): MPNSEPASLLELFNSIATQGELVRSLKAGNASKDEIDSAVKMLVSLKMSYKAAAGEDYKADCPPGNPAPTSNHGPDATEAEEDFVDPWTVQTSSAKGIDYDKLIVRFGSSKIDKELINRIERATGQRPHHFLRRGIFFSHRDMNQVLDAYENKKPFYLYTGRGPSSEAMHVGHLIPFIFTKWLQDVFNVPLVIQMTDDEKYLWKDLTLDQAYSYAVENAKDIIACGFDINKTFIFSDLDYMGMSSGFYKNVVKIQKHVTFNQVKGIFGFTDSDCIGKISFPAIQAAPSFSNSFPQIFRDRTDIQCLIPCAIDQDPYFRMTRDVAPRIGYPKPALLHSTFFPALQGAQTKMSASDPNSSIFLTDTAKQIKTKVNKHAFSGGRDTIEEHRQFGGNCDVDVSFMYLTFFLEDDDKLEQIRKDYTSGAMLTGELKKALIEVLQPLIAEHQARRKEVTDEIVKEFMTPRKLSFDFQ
Description: as §1

[4] = molecular target: T4, B42-YRS (tyrosyl-tRNA synthetase) (UniProt P54577 1-528); assay: as above
T4 construct: Yeast two-hybrid prey; also called tyrosyl-YRS; pB42-YRS; not shown: B42 protein from pB42 vector (Invitrogen)
T4 sequence (looked up): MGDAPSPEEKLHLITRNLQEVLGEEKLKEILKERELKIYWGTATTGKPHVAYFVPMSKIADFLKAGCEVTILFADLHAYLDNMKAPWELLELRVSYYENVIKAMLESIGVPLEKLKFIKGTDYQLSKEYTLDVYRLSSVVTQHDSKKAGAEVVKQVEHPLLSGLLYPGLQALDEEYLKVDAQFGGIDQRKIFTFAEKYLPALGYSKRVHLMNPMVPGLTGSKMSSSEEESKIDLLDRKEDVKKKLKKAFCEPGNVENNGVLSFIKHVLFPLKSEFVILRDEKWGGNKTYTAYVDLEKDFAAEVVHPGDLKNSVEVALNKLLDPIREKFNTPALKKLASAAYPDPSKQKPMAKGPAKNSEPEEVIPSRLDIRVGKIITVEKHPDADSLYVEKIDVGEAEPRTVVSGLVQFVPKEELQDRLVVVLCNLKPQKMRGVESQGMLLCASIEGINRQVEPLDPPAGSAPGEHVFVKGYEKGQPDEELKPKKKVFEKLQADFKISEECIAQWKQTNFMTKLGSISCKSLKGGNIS
Description: as §1

[5] = molecular target: T5, B42-QRS (glutaminyl-tRNA synthetase) (UniProt P47897 1-775); assay: as above
T5 construct: Yeast two-hybrid prey; also called pB42-QRS; not shown: B42 protein from pB42 vector (Invitrogen)
T5 sequence (looked up): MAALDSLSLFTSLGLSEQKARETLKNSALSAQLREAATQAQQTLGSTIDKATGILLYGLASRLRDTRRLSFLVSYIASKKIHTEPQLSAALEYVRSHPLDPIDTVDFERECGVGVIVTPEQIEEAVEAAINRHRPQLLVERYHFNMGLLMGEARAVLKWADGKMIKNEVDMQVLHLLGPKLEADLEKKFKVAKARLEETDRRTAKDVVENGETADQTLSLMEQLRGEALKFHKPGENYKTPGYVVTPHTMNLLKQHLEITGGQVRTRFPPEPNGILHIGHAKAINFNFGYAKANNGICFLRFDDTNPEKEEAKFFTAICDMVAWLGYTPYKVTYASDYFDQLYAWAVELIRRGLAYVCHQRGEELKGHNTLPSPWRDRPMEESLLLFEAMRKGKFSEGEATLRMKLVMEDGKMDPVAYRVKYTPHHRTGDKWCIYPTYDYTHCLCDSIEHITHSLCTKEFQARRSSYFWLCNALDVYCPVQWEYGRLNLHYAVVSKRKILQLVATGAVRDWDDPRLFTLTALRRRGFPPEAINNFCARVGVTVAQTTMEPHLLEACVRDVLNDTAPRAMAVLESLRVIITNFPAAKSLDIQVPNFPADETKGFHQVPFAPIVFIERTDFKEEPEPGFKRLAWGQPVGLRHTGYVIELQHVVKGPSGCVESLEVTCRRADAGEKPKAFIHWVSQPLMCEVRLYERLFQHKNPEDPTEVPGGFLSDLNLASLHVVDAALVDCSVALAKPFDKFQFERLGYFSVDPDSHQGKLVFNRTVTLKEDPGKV
Description: as §1

[6] = molecular target: T6, PDK-1 (phosphoinositide-dependent kinase) (UniProt O15530 1-556, limits assumed); assay: anti PDK-1 immunoprecipitation from HCT116 cells treated with FasL or TNF, western blot with p38/JTV-1 antibody
T6 construct: Endogenous protein of the cell lysate
T6 sequence (looked up): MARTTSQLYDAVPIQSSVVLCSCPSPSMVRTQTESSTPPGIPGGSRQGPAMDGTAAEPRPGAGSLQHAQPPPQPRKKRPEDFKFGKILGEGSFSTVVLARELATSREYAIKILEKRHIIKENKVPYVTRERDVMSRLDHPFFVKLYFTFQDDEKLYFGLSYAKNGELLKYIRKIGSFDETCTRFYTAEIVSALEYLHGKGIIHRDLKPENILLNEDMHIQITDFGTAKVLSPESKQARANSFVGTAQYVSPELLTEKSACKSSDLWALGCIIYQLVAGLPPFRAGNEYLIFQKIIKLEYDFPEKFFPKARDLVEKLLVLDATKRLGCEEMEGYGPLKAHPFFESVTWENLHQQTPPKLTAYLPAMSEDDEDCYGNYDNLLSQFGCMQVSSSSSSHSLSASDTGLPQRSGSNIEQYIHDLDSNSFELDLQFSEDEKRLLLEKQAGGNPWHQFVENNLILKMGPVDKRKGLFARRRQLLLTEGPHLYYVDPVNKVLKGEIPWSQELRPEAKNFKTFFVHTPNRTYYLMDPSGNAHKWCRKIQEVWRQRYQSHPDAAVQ

[7] = molecular target: T7, myc-(p38/JTV-1), amino acids 1-312 (full length)
T7 chain: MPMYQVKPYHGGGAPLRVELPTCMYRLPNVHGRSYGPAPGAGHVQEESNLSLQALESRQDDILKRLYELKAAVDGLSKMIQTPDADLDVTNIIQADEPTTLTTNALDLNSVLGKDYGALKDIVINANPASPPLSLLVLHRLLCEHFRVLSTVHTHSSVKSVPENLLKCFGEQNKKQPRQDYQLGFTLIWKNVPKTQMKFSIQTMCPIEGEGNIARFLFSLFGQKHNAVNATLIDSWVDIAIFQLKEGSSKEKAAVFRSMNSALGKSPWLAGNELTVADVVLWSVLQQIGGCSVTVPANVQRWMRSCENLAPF

B1: myc-tagged p38/JTV-1 deletion fragment, amino acids 162-312 (other)
chain: PENLLKCFGEQNKKQPRQDYQLGFTLIWKNVPKTQMKFSIQTMCPIEGEGNIARFLFSLFGQKHNAVNATLIDSWVDIAIFQLKEGSSKEKAAVFRSMNSALGKSPWLAGNELTVADVVLWSVLQQIGGCSVTVPANVQRWMRSCENLAPF
notes: not shown: myc tag from myc-tagged pcDNA3 (Invitrogen)
- binding result [1]: no binding

B4: PDK-1 (phosphoinositide-dependent kinase) (protein)
chain: MARTTSQLYDAVPIQSSVVLCSCPSPSMVRTQTESSTPPGIPGGSRQGPAMDGTAAEPRPGAGSLQHAQPPPQPRKKRPEDFKFGKILGEGSFSTVVLARELATSREYAIKILEKRHIIKENKVPYVTRERDVMSRLDHPFFVKLYFTFQDDEKLYFGLSYAKNGELLKYIRKIGSFDETCTRFYTAEIVSALEYLHGKGIIHRDLKPENILLNEDMHIQITDFGTAKVLSPESKQARANSFVGTAQYVSPELLTEKSACKSSDLWALGCIIYQLVAGLPPFRAGNEYLIFQKIIKLEYDFPEKFFPKARDLVEKLLVLDATKRLGCEEMEGYGPLKAHPFFESVTWENLHQQTPPKLTAYLPAMSEDDEDCYGNYDNLLSQFGCMQVSSSSSSHSLSASDTGLPQRSGSNIEQYIHDLDSNSFELDLQFSEDEKRLLLEKQAGGNPWHQFVENNLILKMGPVDKRKGLFARRRQLLLTEGPHLYYVDPVNKVLKGEIPWSQELRPEAKNFKTFFVHTPNRTYYLMDPSGNAHKWCRKIQEVWRQRYQSHPDAAVQ
- expression level of the phosphorylated AKT (p-308 and p-473) [7]: when the expression level of p38/JTV-1 was increased, the expression level of the phosphorylated AKT (p-308 and p-473) was decreased

The remaining lines, values ahead:

- binding result [2]: binds
- binding result [3]: no binding
- binding result [4]: no binding
- binding result [5]: no binding
B2: LexA-(p38/JTV-1) (other)
chain: MPMYQVKPYHGGGAPLRVELPTCMYRLPNVHGRSYGPAPGAGHVQEESNLSLQALESRQDDILKRLYELKAAVDGLSKMIQTPDADLDVTNIIQADEPTTLTTNALDLNSVLGKDYGALKDIVINANPASPPLSLLVLHRLLCEHFRVLSTVHTHSSVKSVPENLLKCFGEQNKKQPRQDYQLGFTLIWKNVPKTQMKFSIQTMCPIEGEGNIARFLFSLFGQKHNAVNATLIDSWVDIAIFQLKEGSSKEKAAVFRSMNSALGKSPWLAGNELTVADVVLWSVLQQIGGCSVTVPANVQRWMRSCENLAPF
notes: Yeast two-hybrid bait expressed in S. cerevisiae EGY48; also called fusion protein of p38/JTV-1 and LexA; pLexA-(p38/JTV-1); not shown: LexA protein encoded by pLex202 vector (Invitrogen)

- binding result [6]: binds
B3: myc-(p38/JTV-1), amino acids 1-312 (full length) (other)
chain: MPMYQVKPYHGGGAPLRVELPTCMYRLPNVHGRSYGPAPGAGHVQEESNLSLQALESRQDDILKRLYELKAAVDGLSKMIQTPDADLDVTNIIQADEPTTLTTNALDLNSVLGKDYGALKDIVINANPASPPLSLLVLHRLLCEHFRVLSTVHTHSSVKSVPENLLKCFGEQNKKQPRQDYQLGFTLIWKNVPKTQMKFSIQTMCPIEGEGNIARFLFSLFGQKHNAVNATLIDSWVDIAIFQLKEGSSKEKAAVFRSMNSALGKSPWLAGNELTVADVVLWSVLQQIGGCSVTVPANVQRWMRSCENLAPF
notes: also called myc-tagged p38/JTV-1; p38/JTV-1 expression plasmid product; not shown: myc tag from myc-tagged pcDNA3 (Invitrogen)
